Laboratory results as given in patent publication US20240262919A1 (SHANGHAITECH UNIVERSITY, published 2024).
Where a chain is given by its changes, count along the chain named.

T1: Rhesus IL-18Rβ (rhesus, UniProt F7HHC1 20-356)
T1 construct: also called rhesus IL-18 receptor beta; monkey IL-18Rβ
T1 sequence: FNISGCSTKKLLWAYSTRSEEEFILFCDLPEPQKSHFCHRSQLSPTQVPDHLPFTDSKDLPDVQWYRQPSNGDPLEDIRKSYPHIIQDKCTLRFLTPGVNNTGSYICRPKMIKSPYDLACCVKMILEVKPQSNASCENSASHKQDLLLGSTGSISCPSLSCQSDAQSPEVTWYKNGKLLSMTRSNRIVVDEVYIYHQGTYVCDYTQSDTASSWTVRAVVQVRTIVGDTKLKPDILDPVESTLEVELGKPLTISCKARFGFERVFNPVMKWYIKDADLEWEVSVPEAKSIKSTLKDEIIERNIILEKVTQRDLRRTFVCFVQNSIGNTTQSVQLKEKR

T2: human IL-18Rα ECD Fc fusion (816-LR-100; R&D Systems) (human, UniProt Q13478 22-329)
T2 construct: extracellular domain; Bought protein; also called Human receptor; not shown: Fc tag of the bought fusion protein, not described
T2 sequence (looked up): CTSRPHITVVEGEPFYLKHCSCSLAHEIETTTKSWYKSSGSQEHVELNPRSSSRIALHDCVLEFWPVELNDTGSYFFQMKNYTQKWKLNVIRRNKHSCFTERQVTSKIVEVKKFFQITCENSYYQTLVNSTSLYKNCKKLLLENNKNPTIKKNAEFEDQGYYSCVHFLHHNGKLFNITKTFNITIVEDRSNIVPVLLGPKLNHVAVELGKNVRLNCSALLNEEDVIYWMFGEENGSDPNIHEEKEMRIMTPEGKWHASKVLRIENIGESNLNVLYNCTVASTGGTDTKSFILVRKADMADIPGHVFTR

T3: human IL-18Rβ ECD Fc fusion (118-AP-100, R&D Systems) (human, UniProt O95256 20-356)
T3 construct: Bought protein; also called hIL-18Rβ; recombinant human IL-18Rb; not shown: Fc tag of the bought fusion protein, not described
T3 sequence: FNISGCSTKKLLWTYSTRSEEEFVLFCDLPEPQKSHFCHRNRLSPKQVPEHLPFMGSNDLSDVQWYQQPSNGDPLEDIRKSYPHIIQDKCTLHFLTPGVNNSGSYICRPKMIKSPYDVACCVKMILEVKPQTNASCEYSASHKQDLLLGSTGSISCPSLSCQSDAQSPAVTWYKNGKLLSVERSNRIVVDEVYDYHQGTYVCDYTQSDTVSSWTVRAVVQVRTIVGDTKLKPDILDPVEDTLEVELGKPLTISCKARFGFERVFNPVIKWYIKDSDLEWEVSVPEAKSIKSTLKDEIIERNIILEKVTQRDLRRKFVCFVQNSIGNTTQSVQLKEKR

T4: mouse IL-18Rβ (mouse, UniProt Q9Z2B1 20-356, limits assumed)
T4 construct: also called Mouse receptor; mouse ortholog
T4 sequence (looked up): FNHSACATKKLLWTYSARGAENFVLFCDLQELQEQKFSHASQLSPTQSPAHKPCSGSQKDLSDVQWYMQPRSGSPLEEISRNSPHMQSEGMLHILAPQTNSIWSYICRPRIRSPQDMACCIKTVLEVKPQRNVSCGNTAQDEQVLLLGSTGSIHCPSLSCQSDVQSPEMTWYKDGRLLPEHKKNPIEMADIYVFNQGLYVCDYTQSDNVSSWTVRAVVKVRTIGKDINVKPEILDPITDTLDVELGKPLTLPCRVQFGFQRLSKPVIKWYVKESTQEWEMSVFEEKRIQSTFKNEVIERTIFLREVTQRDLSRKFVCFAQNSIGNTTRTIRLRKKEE

B1: IgG 3131 (antibody, V domains shown)
VH: EVQLVESGGGLVQPGGSLRLSCAASGFNLYYSSMHWVRQAPGKGLEWVASIYSSYGYTYYADSVKGRFTISADTSKNTAYLQMNSLRAEDTAVYYCARSSFSHGYGWYGLDYWGQGTLVTVSS
VL: DIQMTQSPSSLSASVGDRVTITCRASQSVSSAVAWYQQKPGKAPKLLIYSASSLYSGVPSRFSGSRSGTDFTLTISSLQPEDFATYYCQQYGYHYAGLITFGQGTKVEIKR
notes: IgG made by sub-cloning the Fab CDR regions into IgG expression constructs; VL-CL with FLAG tag; also called I3131
B2: Fab 12 (Fab)
heavy: EVQLVESGGGLVQPGGSLRLSCAASGFNISSSSIHWVRQAPGKGLEWVASISPSYSSTYYADSVKGRFTISADTSKNTAYLQMNSLRAEDTAVYYCARGAFDYWGQGTLVTVSSASTKGPSVFPLAPSSKSTSGGTAALGCLVKDYFPEPVTVSWNSGALTSGVHTFPAVLQSSGLYSLSSVVTVPSSSLGTQTYICNVNHKPSNTKVDKKVEPKSCDKTHT
light: DIQMTQSPSSLSASVGDRVTITCRASQSVSSAVAWYQQKPGKAPKLLIYSASSLYSGVPSRFSGSRSGTDFTLTISSLQPEDFATYYCQQYWHPFTFGQGTKVEIKRTVAAPSVFIFPPSDSQLKSGTASVVCLLNNFYPREAKVQWKVDNALQSGNSQESVTEQDSKDSTYSLSSTLTLSKADYEKHKVYACEVTHQGLSSPVTKSFNRGECGGSDYKDDDDK
notes: Anti-IL-18Rα Fab; also called F12
B3: Fab 3131 (Fab)
heavy: EVQLVESGGGLVQPGGSLRLSCAASGFNLYYSSMHWVRQAPGKGLEWVASIYSSYGYTYYADSVKGRFTISADTSKNTAYLQMNSLRAEDTAVYYCARSSFSHGYGWYGLDYWGQGTLVTVSSASTKGPSVFPLAPSSKSTSGGTAALGCLVKDYFPEPVTVSWNSGALTSGVHTFPAVLQSSGLYSLSSVVTVPSSSLGTQTYICNVNHKPSNTKVDKKVEPKSCDKTHT
light: DIQMTQSPSSLSASVGDRVTITCRASQSVSSAVAWYQQKPGKAPKLLIYSASSLYSGVPSRFSGSRSGTDFTLTISSLQPEDFATYYCQQYGYHYAGLITFGQGTKVEIKRTVAAPSVFIFPPSDSQLKSGTASVVCLLNNFYPREAKVQWKVDNALQSGNSQESVTEQDSKDSTYSLSSTLTLSKADYEKHKVYACEVTHQGLSSPVTKSFNRGECGGSDYKDDDDK
notes: also called F3131
B4: Fab 3132 (Fab)
heavy: EVQLVESGGGLVQPGGSLRLSCAASGFNISYYYIHWVRQAPGKGLEWVASIYSYSGYTSYADSVKGRFTISADTSKNTAYLQMNSLRAEDTAVYYCARASAMDYWGQGTLVTVSSASTKGPSVFPLAPSSKSTSGGTAALGCLVKDYFPEPVTVSWNSGALTSGVHTFPAVLQSSGLYSLSSVVTVPSSSLGTQTYICNVNHKPSNTKVDKKVEPKSCDKTHT
light: B3 light with Y91H, G92W, Y93W, H94A, Y95S, A96V, G97P, L98P, I99F
notes: also called F3132
B5: Fab 3144 (Fab)
heavy: B4 heavy with I29L, Y33S, A99S
light: DIQMTQSPSSLSASVGDRVTITCRASQSVSSAVAWYQQKPGKAPKLLIYSASSLYSGVPSRFSGSRSGTDFTLTISSLQPEDFATYYCQQHWWGYPLITFGQGTKVEIKRTVAAPSVFIFPPSDSQLKSGTASVVCLLNNFYPREAKVQWKVDNALQSGNSQESVTEQDSKDSTYSLSSTLTLSKADYEKHKVYACEVTHQGLSSPVTKSFNRGECGGSDYKDDDDK
notes: also called F3144

Legend:
Rhesus IL-18Rβ [1] = molecular target: T1, Rhesus IL-18Rβ; experiment: SPR
Rhesus IL-18Rβ [2] = molecular target: T1, Rhesus IL-18Rβ; experiment: multipoint direct binding ELISA
[3] = molecular target: T2, human IL-18Rα ECD Fc fusion …; experiment: multipoint direct binding ELISA (drawn table, column EC50 (nM)); the cell equals that of row A3
[4] = molecular target: T2, human IL-18Rα ECD Fc fusion …; experiment: competitive binding ELISA with soluble receptor (drawn table, column IC50 (nM)); the cell equals that of row A3
[5] = molecular target: T2, human IL-18Rα ECD Fc fusion …; experiment: SPR, Fab on human receptor
[6] = molecular target: T2, human IL-18Rα ECD Fc fusion …; experiment: competitive ELISA with a dilution series of soluble receptor; the axis is printed 'Soluble hIL18Rβ concentration (nM)', but legend paragraph 36 and the table of panel C give IL-18Rα for this trace; the competitor is the immobilised receptor; y axis printed 'Inhibition (%)'
[7] = molecular target: T2, human IL-18Rα ECD Fc fusion …; experiment: direct binding ELISA on immobilised human IL-18Rα (target after legend paragraph 36 and the table of panel C), OD 450 against concentration; panel title and axes say IgG, the key and legend say Fab
[8] = molecular target: T3, human IL-18Rβ ECD Fc fusion …; experiment: competitive binding ELISA with soluble receptor (drawn table, column IC50 (nM))
[9] = molecular target: T3, human IL-18Rβ ECD Fc fusion …; experiment: biolayer interferometry (BLI) after legend paragraph 36; drawn table, head KD (nM), Human receptor
mouse IL-18Rβ = molecular target: T4, mouse IL-18Rβ; experiment: SPR (Table 5 title), Fab on mouse receptor
[10] = molecular target: T3, human IL-18Rβ ECD Fc fusion …; experiment: biolayer interferometry (BLI) after legend paragraph 36; drawn table, head ka (10^4 M^-1 s^-1), Human receptor
[11] = molecular target: T3, human IL-18Rβ ECD Fc fusion …; experiment: biolayer interferometry (BLI) after legend paragraph 36; drawn table, head kd (10^-4 s^-1), Human receptor
[12] = molecular target: T3, human IL-18Rβ ECD Fc fusion …; experiment: multipoint direct binding ELISA (drawn table, column EC50 (nM))
[13] = molecular target: T3, human IL-18Rβ ECD Fc fusion …; experiment: competitive ELISA: signal on immobilised receptor after incubation with a two-fold dilution series of soluble hIL-18Rβ; the concentration axis is the soluble receptor; y axis printed 'Inhibition (%)'
[14] = molecular target: T3, human IL-18Rβ ECD Fc fusion …; experiment: SPR (Table 5 title), Fab on human receptor
[15] = molecular target: T3, human IL-18Rβ ECD Fc fusion …; experiment: direct binding ELISA on immobilised human IL-18Rβ, OD 450 against concentration; panel title and axes say IgG, the key and legend paragraph 36 say Fab

Row | Binder | IC50 [8] | Kd [9] | Kd (mouse IL-18Rβ) | koff (mouse IL-18Rβ) | kon (mouse IL-18Rβ) | kon [10] | koff [11] | EC50 [12] | IC50 (read off the curve) [13] | Kd [14] | koff [14] | kon [14] | EC50 (read off the curve) [15] | other results
1 | B1 |  |  |  |  |  |  |  |  |  |  |  |  |  | Kd (Rhesus IL-18Rβ [1]): 3.9 nM; koff (Rhesus IL-18Rβ [1]): 0.00015 s⁻¹; kon (Rhesus IL-18Rβ [1]): 38000 M⁻¹ s⁻¹; EC50 (Rhesus IL-18Rβ [2]): 11.5 nM
2 | B2 |  |  |  |  |  |  |  |  |  |  |  |  |  | EC50 [3]: 86 nM; IC50 [4]: 105 nM; Kd [5]: 1.9 nM; koff [5]: 0.0002 s⁻¹; kon [5]: 110000 M⁻¹ s⁻¹; IC50 (read off the curve) [6]: ~20 nM; EC50 (read off the curve) [7]: ~0.8 nM
3 | B3 | 82 nM | 6.1 nM | 5.2 nM | 0.00062 s⁻¹ | 120000 M⁻¹ s⁻¹ | 210000 M⁻¹ s⁻¹ | 0.0013 s⁻¹ | 16 nM | 1 to 2 nM | 6.2 nM | 0.00127 s⁻¹ | 210000 M⁻¹ s⁻¹ | ~0.3 nM | 
4 | B4 | 74 nM | 133 nM |  |  |  | 10000 M⁻¹ s⁻¹ | 0.0013 s⁻¹ | 33 nM | ~9 nM |  |  |  | ~0.5 nM | 
5 | B5 | 19 nM | 6.4 nM | 12.9 nM | 0.0012 s⁻¹ | 93000 M⁻¹ s⁻¹ | 170000 M⁻¹ s⁻¹ | 0.0011 s⁻¹ | 16 nM | ~2 nM | 1.8 nM | 0.00058 s⁻¹ | 320000 M⁻¹ s⁻¹ | ~0.4 nM | 
